Results on 94 variants are retold here after the supplement of paper PMC10567573.

To fix the notation:
B1: NCF4 (parent)
chain: FGPDSKSSALACTLPTLPAKVYVG
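Also: lentivirally expressed fusions sorted by FACS into six bins by GFP to DsRed ratio, PSI derived from sequencing read proportions per bin multiplied by bin number.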

In this data set the parent is B1. Put plainly: protein stability index of a GFP-peptide fusion (GPS, HEK-293T) (PSI 1-6); higher = more stable. Particulars: c terminus: a fixed tail appended.
For the variant FGPDSKSSALPCTLPTLPAKVYVG [A11P], the protein stability index was found to be 2.17. Next, FGPDSKSSALYCTLPTLPAKVYVG [A11Y]: 1.46; FGPDSKSSALDCTLPTLPAKVYVG [A11D]: 2.99; FGPDSKSSALICTLPTLPAKVYVG [A11I]: 2.24. Next, FGPDSKSSALTCTLPTLPAKVYVG [A11T]: 2.51; FGPDSKSSALFCTLPTLPAKVYVG [A11F]: 2.4; FGPDSKSSALVCTLPTLPAKVYVG [A11V]: 1.76. In the case of FGPDSKSSALMCTLPTLPAKVYVG [A11M], the protein stability index came to 2.86. The value for FGPDSKSSALRCTLPTLPAKVYVG [A11R] was 1.58; that for FGPDSKSSALQCTLPTLPAKVYVG [A11Q] was 3; that for FGPDSKSSALSCTLPTLPAKVYVG [A11S] was 2.45. In the case of FGPDSKSSALHCTLPTLPAKVYVG [A11H], the protein stability index amounted to 2.23. Consider FGPDSKSSALKCTLPTLPAKVYVG [A11K], for which the protein stability index was found to be 2.29.

For the variant FGPDSKSSALNCTLPTLPAKVYVG [A11N], the protein stability index turned out to be 2.78.

Consider FGPDSKSSALGCTLPTLPAKVYVG [A11G], for which the protein stability index is 2.22. Take FGPDSKSSALECTLPTLPAKVYVG [A11E]: the protein stability index turned out to be 2.63.

As for FGPDSKSSALCCTLPTLPAKVYVG [A11C], the protein stability index is 2.35. The value for FGPDSKSSALLCTLPTLPAKVYVG [A11L] was 2.18; that for FGPDSKSSWLACTLPTLPAKVYVG [A9W] was 2.52. With FGPDSKSSELACTLPTLPAKVYVG [A9E], the protein stability index came out at 3.67.

As for FGPDSKSSLLACTLPTLPAKVYVG [A9L], the protein stability index came to 1.11.

As for FGPDSKSSQLACTLPTLPAKVYVG [A9Q], the protein stability index stood at 2.46. For the variant FGPDSKSSYLACTLPTLPAKVYVG [A9Y], the protein stability index worked out at 1.5. Next, FGPDSKSSMLACTLPTLPAKVYVG [A9M]: 1.9. In the case of FGPDSKSSDLACTLPTLPAKVYVG [A9D], the protein stability index worked out at 3.18. Regarding FGPDSKSSGLACTLPTLPAKVYVG [A9G], the protein stability index came out at 1.67. Next, FGPDSKSSRLACTLPTLPAKVYVG [A9R]: 2.29. The value for FGPDSKSSHLACTLPTLPAKVYVG [A9H] was 2.23.

Take FGPDSKSSKLACTLPTLPAKVYVG [A9K]: the protein stability index was determined as 1.89. Next, FGPDSKSSILACTLPTLPAKVYVG [A9I]: 1.86. On to FGPDSKSSSLACTLPTLPAKVYVG [A9S], for which the protein stability index turned out to be 2.23. Take FGPDSKSSTLACTLPTLPAKVYVG [A9T]: the protein stability index worked out at 2.44. Next, FGPDSKSSPLACTLPTLPAKVYVG [A9P]: 1.57; FGPDSKSSCLACTLPTLPAKVYVG [A9C]: 1.74.

Consider FGPDSKSSVLACTLPTLPAKVYVG [A9V], for which the protein stability index was 2.25. On to FGPDSKSSNLACTLPTLPAKVYVG [A9N], for which the protein stability index is 2.49. FGPDSKSSALACTIPTLPAKVYVG [L14I]: the protein stability index was found to be 2.15. The value for FGPDSKSSALACTRPTLPAKVYVG [L14R] was 2.32. Take FGPDSKSSALACTKPTLPAKVYVG [L14K]: the protein stability index came to 2.55.

With FGPDSKSSALACTAPTLPAKVYVG [L14A], the protein stability index turned out to be 2.68. Next, FGPDSKSSALACTGPTLPAKVYVG [L14G]: 2.66. As to FGPDSKSSALACTVPTLPAKVYVG [L14V], the protein stability index turned out to be 2.11. The value for FGPDSKSSALACTNPTLPAKVYVG [L14N] was 2.32.

For FGPDSKSSALACTHPTLPAKVYVG [L14H], the protein stability index was 2.19. For FGPDSKSSALACTMPTLPAKVYVG [L14M], the protein stability index was 2.77. The value for FGPDSKSSALACTWPTLPAKVYVG [L14W] was 1.51; that for FGPDSKSSALACTDPTLPAKVYVG [L14D] was 2.84.

With FGPDSKSSALACTTPTLPAKVYVG [L14T], the protein stability index stood at 2.54. The value for FGPDSKSSALACTQPTLPAKVYVG [L14Q] was 2.25; that for FGPDSKSSALACTEPTLPAKVYVG [L14E] was 2.76; that for FGPDSKSSALACTCPTLPAKVYVG [L14C] was 1.77. The value for FGPDSKSSALACTFPTLPAKVYVG [L14F] was 2.25; that for FGPDSKSSALACTSPTLPAKVYVG [L14S] was 2.86. On to FGPDSKSSALACTYPTLPAKVYVG [L14Y], for which the protein stability index came out at 1.86. The value for FGPDSKSDALACTLPTLPAKVYVG [S8D] was 2.7; that for FGPDSKSHALACTLPTLPAKVYVG [S8H] was 1.67; that for FGPDSKSCALACTLPTLPAKVYVG [S8C] was 2.44. The value for FGPDSKSRALACTLPTLPAKVYVG [S8R] was 3.19. Next, FGPDSKSGALACTLPTLPAKVYVG [S8G]: 2.77. Regarding FGPDSKSYALACTLPTLPAKVYVG [S8Y], the protein stability index amounted to 4.4.

Regarding FGPDSKSLALACTLPTLPAKVYVG [S8L], the protein stability index is 1.98. The value for FGPDSKSMALACTLPTLPAKVYVG [S8M] was 2.08; that for FGPDSKSPALACTLPTLPAKVYVG [S8P] was 2.22; that for FGPDSKSNALACTLPTLPAKVYVG [S8N] was 2.32. Next, FGPDSKSVALACTLPTLPAKVYVG [S8V]: 2.22. On to FGPDSKSEALACTLPTLPAKVYVG [S8E], for which the protein stability index is 3.36. The value for FGPDSKSWALACTLPTLPAKVYVG [S8W] was 2.65; that for FGPDSKSKALACTLPTLPAKVYVG [S8K] was 1.85. Next, FGPDSKSFALACTLPTLPAKVYVG [S8F]: 2.86. Next, FGPDSKSIALACTLPTLPAKVYVG [S8I]: 2.44; FGPDSKSAALACTLPTLPAKVYVG [S8A]: 2.32. For the variant FGPDSKSTALACTLPTLPAKVYVG [S8T], the protein stability index amounted to 1.89.

For the variant FGPDSKSQALACTLPTLPAKVYVG [S8Q], the protein stability index came to 2.29.

With FGPDSKSSALACTLPTNPAKVYVG [L17N], the protein stability index is 2.27.

As for FGPDSKSSALACTLPTPPAKVYVG [L17P], the protein stability index was determined as 2.6.

With FGPDSKSSALACTLPTDPAKVYVG [L17D], the protein stability index was determined as 2.76. The value for FGPDSKSSALACTLPTGPAKVYVG [L17G] was 2.59. For the variant FGPDSKSSALACTLPTCPAKVYVG [L17C], the protein stability index came out at 2.14.

On to FGPDSKSSALACTLPTFPAKVYVG [L17F], for which the protein stability index came to 2. In the case of FGPDSKSSALACTLPTEPAKVYVG [L17E], the protein stability index was found to be 2.64. The value for FGPDSKSSALACTLPTMPAKVYVG [L17M] was 2.24; that for FGPDSKSSALACTLPTAPAKVYVG [L17A] was 2.39; that for FGPDSKSSALACTLPTKPAKVYVG [L17K] was 2.54. In the case of FGPDSKSSALACTLPTIPAKVYVG [L17I], the protein stability index was found to be 1.88. Take FGPDSKSSALACTLPTHPAKVYVG [L17H]: the protein stability index was found to be 2.09.

Consider FGPDSKSSALACTLNTLPAKVYVG [P15N], for which the protein stability index came to 1.85. With FGPDSKSSALACTLATLPAKVYVG [P15A], the protein stability index stood at 1.5. Next, FGPDSKSSALACTLSTLPAKVYVG [P15S]: 1.95. With FGPDSKSSALACTLWTLPAKVYVG [P15W], the protein stability index was 3.34. Consider FGPDSKSSALACTLDTLPAKVYVG [P15D], for which the protein stability index came to 1.53. As for FGPDSKSSALACTLETLPAKVYVG [P15E], the protein stability index is 2.29. The value for FGPDSKSSALACTLRTLPAKVYVG [P15R] was 1.61.

As for FGPDSKSSALACTLFTLPAKVYVG [P15F], the protein stability index was found to be 3.49. The value for FGPDSKSSALACTLMTLPAKVYVG [P15M] was 1.86.
